The values that follow come from patent US20030208060A1.

For experiment [1], the target named is T1, apoE- and lipoprotein lipase-independent TGRLP receptor (apoB48R) on the surface of THP-1 monocyte-macrophages (human) (UniProt Q0VD83).
T1 sequence: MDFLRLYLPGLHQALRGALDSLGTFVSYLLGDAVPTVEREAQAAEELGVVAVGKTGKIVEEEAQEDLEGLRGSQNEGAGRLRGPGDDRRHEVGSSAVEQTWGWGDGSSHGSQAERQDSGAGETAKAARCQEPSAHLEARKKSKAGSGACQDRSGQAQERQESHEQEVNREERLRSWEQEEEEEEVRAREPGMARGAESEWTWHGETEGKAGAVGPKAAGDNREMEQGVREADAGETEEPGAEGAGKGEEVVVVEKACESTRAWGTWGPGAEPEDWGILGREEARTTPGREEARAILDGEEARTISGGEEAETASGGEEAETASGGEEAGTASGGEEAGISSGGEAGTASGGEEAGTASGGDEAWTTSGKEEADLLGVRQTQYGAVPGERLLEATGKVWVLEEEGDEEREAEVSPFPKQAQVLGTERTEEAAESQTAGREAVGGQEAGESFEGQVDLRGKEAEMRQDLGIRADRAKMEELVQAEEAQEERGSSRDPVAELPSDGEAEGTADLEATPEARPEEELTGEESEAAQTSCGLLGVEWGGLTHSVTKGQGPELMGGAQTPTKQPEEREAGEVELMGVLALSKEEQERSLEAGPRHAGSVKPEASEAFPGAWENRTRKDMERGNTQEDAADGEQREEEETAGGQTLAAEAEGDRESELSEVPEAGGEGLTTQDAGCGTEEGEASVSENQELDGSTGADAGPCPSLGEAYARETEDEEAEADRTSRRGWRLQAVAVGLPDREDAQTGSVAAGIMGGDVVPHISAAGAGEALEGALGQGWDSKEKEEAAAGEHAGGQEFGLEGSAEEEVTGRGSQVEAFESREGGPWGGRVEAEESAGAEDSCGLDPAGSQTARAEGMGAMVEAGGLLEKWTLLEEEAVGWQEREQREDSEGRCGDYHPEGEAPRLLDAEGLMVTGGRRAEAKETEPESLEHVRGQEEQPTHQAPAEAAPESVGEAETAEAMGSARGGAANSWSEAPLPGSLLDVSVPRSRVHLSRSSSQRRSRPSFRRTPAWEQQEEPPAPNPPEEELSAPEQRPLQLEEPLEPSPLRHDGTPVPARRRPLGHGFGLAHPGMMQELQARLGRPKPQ
The experiment is described as follows: specific binding of the 125I-lipoprotein to THP-1 macrophages, 4 °C.

The target in experiment [2] is T1, apoE- and lipoprotein lipase-independent TGRLP receptor (apoB48R) on the surface of THP-1 monocyte-macrophages (human). In words: competition with 125I-HTG-VLDL1 for THP-1 macrophages, 4 °C, lactoferrin 500 µg/ml.
Experiment [3] has the same target. The experiment is described as follows: competition with 125I-tryp-VLDL1 for THP-1 macrophages, 4 °C, lactoferrin 100 µg/ml.
The target of experiment [4] is hypertriglyceridemic very low density lipoprotein Sf100-400 (HTG-VLDL) (human) (UniProt P04114). In words: competitive ligand blot: binding of biotinylated HTG-VLDL to MBP200 and MBP235, control IgG 400 µg/ml.
The target of experiment [5] is T1, apoE- and lipoprotein lipase-independent TGRLP receptor (apoB48R) on the surface of THP-1 monocyte-macrophages (human). The experiment is described as follows: competition with 125I-HTG-VLDL1 for THP-1 macrophages; set as 100% by definition.
For experiment [6] the target is unchanged. In words: competition with 125I-tryp-VLDL1 for THP-1 macrophages; set as 100% by definition.
Experiment [7] shares this target. In words: competition with 125I-tryp-VLDL2 for THP-1 macrophages; set as 100% by definition.
Experiment [8] addresses MBP200 (membrane binding protein of ~200 kDa; human monocyte-macrophage apoB48 receptor, apoB48R) (human) (UniProt Q0VD83). In words: quantitative ligand blot, Scatchard. To be noted: scale: ng apo very low density lipoprotein/mg cell protein.
In experiment [9] the target is MBP235 (membrane binding protein of ~235 kDa: MBP200 plus noncovalently bound subunit(s) of ~35 kDa) (human). The experiment is described as follows: quantitative ligand blot, Scatchard. To be noted: scale: ng apo very low density lipoprotein/mg cell protein.
The target of experiment [10] is MBP200R (reduced, ligand-binding form generated from MBP200 and MBP235 by 2-mercaptoethanol) (human) (UniProt Q0VD83). In words: quantitative ligand blot after reduction, Scatchard. Details: Bmax: unit not given here.
For experiment [11], the target named is T1, apoE- and lipoprotein lipase-independent TGRLP receptor (apoB48R) on the surface of THP-1 monocyte-macrophages (human). In words: binding of 125I-HTG-VLDL at 5 µg/ml to THP-1 macrophages, 4 °C.
Experiment [12] addresses LDL receptor of cultured human skin fibroblasts (upregulated) (human) (UniProt P01130). The experiment is described as follows: binding of 125I-HTG-VLDL at 5 µg/ml to fibroblasts with induced LDL receptor, 4 °C.

Chain of lactoferrin (P02788 20-710): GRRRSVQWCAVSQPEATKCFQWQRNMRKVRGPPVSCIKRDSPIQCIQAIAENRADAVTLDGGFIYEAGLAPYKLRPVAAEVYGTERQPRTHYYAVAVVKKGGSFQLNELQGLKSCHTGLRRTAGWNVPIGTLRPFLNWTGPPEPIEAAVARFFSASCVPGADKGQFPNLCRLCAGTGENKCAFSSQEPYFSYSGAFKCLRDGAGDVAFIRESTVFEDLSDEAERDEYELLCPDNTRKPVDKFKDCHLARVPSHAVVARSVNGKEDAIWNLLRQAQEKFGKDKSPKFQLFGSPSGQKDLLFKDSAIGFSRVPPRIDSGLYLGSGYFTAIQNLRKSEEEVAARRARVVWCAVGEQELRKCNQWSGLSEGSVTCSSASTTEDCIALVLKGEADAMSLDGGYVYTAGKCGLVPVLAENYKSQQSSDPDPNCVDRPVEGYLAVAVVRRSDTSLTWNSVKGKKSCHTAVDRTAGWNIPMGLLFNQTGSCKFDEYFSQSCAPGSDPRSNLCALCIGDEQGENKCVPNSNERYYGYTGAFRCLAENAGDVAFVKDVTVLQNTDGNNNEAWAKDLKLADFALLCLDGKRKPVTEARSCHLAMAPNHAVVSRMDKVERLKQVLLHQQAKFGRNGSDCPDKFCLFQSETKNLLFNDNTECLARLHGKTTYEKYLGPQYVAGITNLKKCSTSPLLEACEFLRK
Chain of LDL receptor of cultured human skin fibroblasts (upregulated) (human) (P01130 22-860): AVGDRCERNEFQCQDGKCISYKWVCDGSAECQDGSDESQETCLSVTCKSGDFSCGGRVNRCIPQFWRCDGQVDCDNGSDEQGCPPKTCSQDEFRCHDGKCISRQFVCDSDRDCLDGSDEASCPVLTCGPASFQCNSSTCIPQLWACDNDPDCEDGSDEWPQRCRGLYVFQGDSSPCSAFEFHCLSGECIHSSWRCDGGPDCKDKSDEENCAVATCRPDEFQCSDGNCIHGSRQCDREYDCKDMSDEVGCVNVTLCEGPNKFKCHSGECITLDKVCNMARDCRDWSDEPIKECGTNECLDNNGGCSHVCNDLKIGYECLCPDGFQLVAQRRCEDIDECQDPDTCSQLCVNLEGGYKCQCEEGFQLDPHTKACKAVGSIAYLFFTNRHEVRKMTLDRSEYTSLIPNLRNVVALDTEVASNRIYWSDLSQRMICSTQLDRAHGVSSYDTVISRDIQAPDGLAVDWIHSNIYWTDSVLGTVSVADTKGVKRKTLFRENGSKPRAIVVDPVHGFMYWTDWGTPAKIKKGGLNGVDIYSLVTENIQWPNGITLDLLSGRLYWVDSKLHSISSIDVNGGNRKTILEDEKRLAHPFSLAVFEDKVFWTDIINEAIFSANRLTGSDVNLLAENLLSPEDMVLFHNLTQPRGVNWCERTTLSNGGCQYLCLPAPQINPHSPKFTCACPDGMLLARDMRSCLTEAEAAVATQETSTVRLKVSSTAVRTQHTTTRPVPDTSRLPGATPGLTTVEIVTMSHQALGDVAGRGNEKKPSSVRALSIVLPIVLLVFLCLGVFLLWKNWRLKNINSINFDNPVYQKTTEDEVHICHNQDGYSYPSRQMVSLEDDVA

Regarding “trypsinized VLDL Sf100-400, devoid of apoE (tryp-VLDL) (from UniProt P04114 28-4563)”, in experiment [1], the specific binding (0% inhibition) (fmol/mg cell protein) was 140.
In the case of lactoferrin, the results for the Percent Inhibition in [2] and in experiment [3] were 5% and 4%, respectively.
Substance preimmune IgG (rabbit 1325) (antibody) came in with a percent of binding blocked in experiment [4] of 25%.
For Unlabeled VLDL (20x), P04114 28-4563, the Percent Inhibition in [5], in [6] and in [7] was 100% in each case.
The Kd is a measure of binding affinity in units of concentration. For the substance “hypertriglyceridemic very low density lipoprotein Sf100-400 (HTG-VLDL) (from UniProt P04114 28-4563; P04114 28-2179; P02649 19-317; P02656 21-99)”, the Bmax in experiment [8] came to 96; in experiment [9] it was 66; in [10], 160. This substance returned a Kd in experiment [10] of 1.4 µg/mL. The substance further yielded a specific binding activity (ng/mg THP-1 cell protein) in [11] of 24. The same substance registered a specific binding activity (ng/mg fibroblast cell protein) in experiment [12] of 237.
In turn, “trypsinized VLDL2 (tryp-VLDL2) (from UniProt P04114 28-4563)” yielded a specific binding (0% inhibition) (fmol/mg cell protein) in experiment [1] of 20.
